In the array DNA melting data of Ke et al. one finds Tm data, which are given here for 66 substances.

The nature of the series: melting temperature; melt of duplexes. Particulars: sodium 0.0675 M; strand 1 µM.
One may read the Tm as the temperature at the midpoint of the melting transition. Regarding “CGACGTGCTCTATGTGCTG+CAGCACATTTCGCACGTCG ((((((((...((((((((+))))))))...))))))))”, the Tm turned out to be 47.3 °C.

As for “CGACGTGCTATATGTGCTG+CAGCACATTGCGCACGTCG ((((((((...((((((((+))))))))...))))))))”, the Tm was determined as 47.4 °C. Under “CGACGTGCCTCATGTGCTG+CAGCACATACTGCACGTCG ((((((((...((((((((+))))))))...))))))))” stands 47 °C; under “CGACGTGCCAGATGTGCTG+CAGCACATATTGCACGTCG ((((((((.(.((((((((+)))))))).).))))))))”, 50.1 °C. “CGACGTGCCCTATGTGCTG+CAGCACATATCGCACGTCG ((((((((..(((((((((+)))))))))..))))))))”: the Tm came out at 48.1 °C.

Turning to “CGACGTGCAAAATGTGCTG+CAGCACATTTCGCACGTCG ((((((((.((((((((((+)))))))))).))))))))”, the Tm worked out at 55.4 °C. Consider “CGACGTGCTGTATGTGCTG+CAGCACATTTGGCACGTCG ((((((((...((((((((+))))))))...))))))))”, for which the Tm was determined as 50.4 °C. For the substance “CGACGTGCACTATGTGCTG+CAGCACATCTCGCACGTCG ((((((((...((((((((+))))))))...))))))))”, the Tm was determined as 41.6 °C.

Consider “CGACGTGCGGTATGTGCTG+CAGCACATTATGCACGTCG ((((((((...((((((((+))))))))...))))))))”, for which the Tm was 51.3 °C.

Regarding “CGACGTGCGTAATGTGCTG+CAGCACATATTGCACGTCG ((((((((...((((((((+))))))))...))))))))”, the Tm amounted to 50.5 °C. As for “CGACGTGCCCGATGTGCTG+CAGCACATTCCGCACGTCG ((((((((...((((((((+))))))))...))))))))”, the Tm came out at 48.2 °C. Regarding “CGACGTGCGGCATGTGCTG+CAGCACATGCTGCACGTCG ((((((((.((((((((((+)))))))))).))))))))”, the Tm came to 62.7 °C. In the case of “CGACGTGCTGCATGTGCTG+CAGCACATACAGCACGTCG ((((((((((.((((((((+)))))))).))))))))))”, the Tm was 58.2 °C.

Take “CGACGTGCAAGATGTGCTG+CAGCACATGATGCACGTCG (((((((((..((((((((+))))))))..)))))))))”: the Tm was 52.3 °C.

Turning to “CGACGTGCCAGATGTGCTG+CAGCACATGAGGCACGTCG (((((((((..((((((((+))))))))..)))))))))”, the Tm is 55.4 °C. As to “CGACGTGCCACATGTGCTG+CAGCACATTGAGCACGTCG ((((((((...((((((((+))))))))...))))))))”, the Tm worked out at 52.2 °C. Take “CGACGTGCTTCATGTGCTG+CAGCACATCACGCACGTCG ((((((((.(.((((((((+)))))))).).))))))))”: the Tm was 47.8 °C.

On to “CGACGTGCGAAATGTGCTG+CAGCACATACGGCACGTCG ((((((((...((((((((+))))))))...))))))))”, for which the Tm turned out to be 49 °C. For the substance “CGACGTGCATAATGTGCTG+CAGCACATATGGCACGTCG ((((((((...((((((((+))))))))...))))))))”, the Tm was determined as 50.4 °C.

Take “CGACGTGCTCAATGTGCTG+CAGCACATTAAGCACGTCG (((((((((.(((((((((+))))))))).)))))))))”: the Tm was 54.4 °C. Turning to “CGACGTGCCCAATGTGCTG+CAGCACATATAGCACGTCG ((((((((...((((((((+))))))))...))))))))”, the Tm is 48.5 °C. Under “CGACGTGCCTGATGTGCTG+CAGCACATTGAGCACGTCG ((((((((...((((((((+))))))))...))))))))” stands 51 °C. With “CGACGTGCTTCATGTGCTG+CAGCACATGATGCACGTCG ((((((((.((((((((((+)))))))))).))))))))”, the Tm turned out to be 58.8 °C. Under “CGACGTGCAATATGTGCTG+CAGCACATCACGCACGTCG ((((((((...((((((((+))))))))...))))))))” stands 46.8 °C; under “CGACGTGCGGGATGTGCTG+CAGCACATCTTGCACGTCG ((((((((..(((((((((+)))))))))..))))))))”, 57.3 °C. With “CGACGTGCAGCATGTGCTG+CAGCACATGCGGCACGTCG ((((((((.((((((((((+)))))))))).))))))))” the figure was 61.6 °C; with “CGACGTGCCTTATGTGCTG+CAGCACATGGGGCACGTCG (((((((((..((((((((+))))))))..)))))))))”, 56.1 °C. As for “CGACGTGCCGAATGTGCTG+CAGCACATCCCGCACGTCG ((((((((.(.((((((((+)))))))).).))))))))”, the Tm stood at 49.6 °C. Regarding “CGACGTGCTTCATGTGCTG+CAGCACATCATGCACGTCG ((((((((.(.((((((((+)))))))).).))))))))”, the Tm amounted to 49.2 °C. Under “CGACGTGCCTAATGTGCTG+CAGCACATCCTGCACGTCG ((((((((...((((((((+))))))))...))))))))” stands 47.9 °C. As to “CGACGTGCGGTATGTGCTG+CAGCACATAGAGCACGTCG ((((((((..(((((((((+)))))))))..))))))))”, the Tm was determined as 56 °C. As for “CGACGTGCGATATGTGCTG+CAGCACATGGCGCACGTCG (((((((((..((((((((+))))))))..)))))))))”, the Tm worked out at 57.4 °C.

Regarding “CGACGTGCGAGATGTGCTG+CAGCACATTTAGCACGTCG ((((((((.(.((((((((+)))))))).).))))))))”, the Tm stood at 53.3 °C. “CGACGTGCGTAATGTGCTG+CAGCACATAGGGCACGTCG ((((((((...((((((((+))))))))...))))))))”: the Tm stood at 51.1 °C. For the substance “CGACGTGCCTAATGTGCTG+CAGCACATGCCGCACGTCG ((((((((...((((((((+))))))))...))))))))”, the Tm was 48.5 °C.

Take “CGACGTGCGCCATGTGCTG+CAGCACATTATGCACGTCG ((((((((...((((((((+))))))))...))))))))”: the Tm was 47.6 °C.

On to “CGACGTGCACGATGTGCTG+CAGCACATTAAGCACGTCG ((((((((...((((((((+))))))))...))))))))”, for which the Tm was found to be 46.5 °C. Under “CGACGTGCCTCATGTGCTG+CAGCACATTGCGCACGTCG ((((((((...((((((((+))))))))...))))))))” stands 47.5 °C; under “CGACGTGCCGAATGTGCTG+CAGCACATTGTGCACGTCG ((((((((..(((((((((+)))))))))..))))))))”, 50.1 °C. With “CGACGTGCGTGATGTGCTG+CAGCACATGCTGCACGTCG ((((((((...((((((((+))))))))...))))))))” the figure was 49.8 °C; with “CGACGTGCCTAATGTGCTG+CAGCACATTAGGCACGTCG (((((((((((((((((((+)))))))))))))))))))”, 63.6 °C; with “CGACGTGCCCCATGTGCTG+CAGCACATACCGCACGTCG ((((((((...((((((((+))))))))...))))))))”, 45.8 °C. With “CGACGTGCAGTATGTGCTG+CAGCACATCTGGCACGTCG ((((((((...((((((((+))))))))...))))))))” the figure was 51.4 °C.

Consider “CGACGTGCGGCATGTGCTG+CAGCACATACTGCACGTCG ((((((((.(.((((((((+)))))))).).))))))))”, for which the Tm was 54.2 °C. Take “CGACGTGCTCGATGTGCTG+CAGCACATCGAGCACGTCG (((((((((((((((((((+)))))))))))))))))))”: the Tm was determined as 66.6 °C. With “CGACGTGCCGCATGTGCTG+CAGCACATGACGCACGTCG ((((((((..(((((((((+)))))))))..))))))))” the figure was 51.2 °C. Regarding “CGACGTGCGTTATGTGCTG+CAGCACATGGAGCACGTCG ((((((((...((((((((+))))))))...))))))))”, the Tm was 54.8 °C. Under “CGACGTGCATGATGTGCTG+CAGCACATGGCGCACGTCG ((((((((...((((((((+))))))))...))))))))” stands 48.1 °C. With “CGACGTGCGCCATGTGCTG+CAGCACATTCGGCACGTCG ((((((((...((((((((+))))))))...))))))))” the figure was 47.5 °C. For “CGACGTGCTTTATGTGCTG+CAGCACATCCGGCACGTCG ((((((((...((((((((+))))))))...))))))))”, the melting temperature (Tm) came out at 48.2 °C. On to “CGACGTGCCAAATGTGCTG+CAGCACATTGGGCACGTCG (((((((((.(((((((((+))))))))).)))))))))”, for which the Tm stood at 59.5 °C. Consider “CGACGTGCTCCATGTGCTG+CAGCACATACAGCACGTCG (((((((((..((((((((+))))))))..)))))))))”, for which the Tm is 49.6 °C. Regarding “CGACGTGCACCATGTGCTG+CAGCACATTCGGCACGTCG ((((((((...((((((((+))))))))...))))))))”, the Tm turned out to be 42.6 °C. For the substance “CGACGTGCCCCATGTGCTG+CAGCACATGTGGCACGTCG (((((((((.(((((((((+))))))))).)))))))))”, the Tm was 58.8 °C.

On to “CGACGTGCACGATGTGCTG+CAGCACATCGTGCACGTCG (((((((((((((((((((+)))))))))))))))))))”, for which the Tm came to 65.4 °C. On to “CGACGTGCCTTATGTGCTG+CAGCACATTGGGCACGTCG (((((((((..((((((((+))))))))..)))))))))”, for which the Tm was 55 °C. Turning to “CGACGTGCGTTATGTGCTG+CAGCACATGGCGCACGTCG (((((((((..((((((((+))))))))..)))))))))”, the Tm is 57.5 °C. Take “CGACGTGCATCATGTGCTG+CAGCACATCTGGCACGTCG ((((((((...((((((((+))))))))...))))))))”: the Tm came out at 47.5 °C.

“CGACGTGCGCAATGTGCTG+CAGCACATAAGGCACGTCG ((((((((...((((((((+))))))))...))))))))”: the Tm amounted to 50.9 °C.

On to “CGACGTGCTATATGTGCTG+CAGCACATTATGCACGTCG ((((((((...((((((((+))))))))...))))))))”, for which the Tm is 51.6 °C.

For “CGACGTGCCTAATGTGCTG+CAGCACATTTTGCACGTCG ((((((((..(((((((((+)))))))))..))))))))”, the Tm amounted to 51.1 °C. With “CGACGTGCGAGATGTGCTG+CAGCACATATTGCACGTCG ((((((((.(.((((((((+)))))))).).))))))))”, the Tm came out at 54.4 °C. As for “CGACGTGCCTTATGTGCTG+CAGCACATTACGCACGTCG ((((((((.(.((((((((+)))))))).).))))))))”, the Tm was 47.7 °C.

For “CGACGTGCGTAATGTGCTG+CAGCACATTGAGCACGTCG ((((((((..(((((((((+)))))))))..))))))))”, the Tm was 56.6 °C. Take “CGACGTGCTAGATGTGCTG+CAGCACATCATGCACGTCG ((((((((..(((((((((+)))))))))..))))))))”: the Tm came out at 55.6 °C.

For the substance “CGACGTGCGACATGTGCTG+CAGCACATATTGCACGTCG ((((((((.(.((((((((+)))))))).).))))))))”, the Tm came to 51.5 °C.
